Experiments:
[1] = tested on: hVSMC; assay: RT-PCR of contractile VSMC markers in hVSMC; type: cell-based, human
Protocol: Cell Culture: Human adult aorta were obtained from seven cadaveric organ donors rejected because of atherosclerosis by Mid-America Transplant Services (St. Louis, Mo.) and enzymatically digested to obtain Human Smooth Muscle Cells (HSMC). Medial tissue was separated from the adventia and intima and digested with collagenase type I (Worthington, Lakewood, N.J.) 2 mg/ml for 1 hr, and washed with Hank's balanced salt solution (HBSS). Further digestion followed with collagenase type II 1 mg/ml (Worthington, Lakewood, N.J.) and elastase 0.25 mg/ml (Worthington, Lakewood, N.J.) for 4 hrs. Cell suspensions were washed twice with HBSS and cultured in T-75 flasks for three weeks in a 95%/5% air/CO2 humidified environment at 37° C. The growth medium used was DMEM containing […] glucose (high glucose), 10% fetal bovine serum (FBS, Atlas, Fort Collins, Colo.), 1 mM sodium pyruvate, 100 units/ml Penicillin and […] Streptomycin (Sigma, St Louis, Mo.). Cell purity was assessed by positive immunostaining for α-smooth muscle actin and calponin and for the absence of von Willebrand factor. In all experimental protocols, cells were seeded at 1×10^5 cells/well in six-well plates. Medium was changed on the first day and every third day thereafter. In all cases, cells used were between passages two and five (Table 3).
RT-PCR: RNA was extracted from cell cultures using RNeasy Mini Kits (Qiagen, Valencia, Calif.). Semi-quantitative RT-PCR was conducted using Roche 1st Strand cDNA Synthesis Kit (Indianapolis, Ind.) and PCR kit from Invitrogen (Grand Island, N.Y.) according to manufacturer's instructions using a two-step method. […] The number of cycles necessary to amplify cDNA but remain within the exponential amplification range was determined for each primer set. […] Genomic contamination was assessed by heat inactivation of the reverse transcriptase prior to RT-PCR. Primers were designed using Vector NTI soft ware (Invitrogen, Grand Island, N.Y.) and optimal conditions for each prime pairs were determined (Table 4). […] The band intensity was analyzed first by scanning the gel on a Typhoon 9410 gel imager (Amersham Biosciences), quantified by using TotalLab software v2003.03 (Nonlinear Dynamics, Durham, N.C.) and normalized for loading by comparison to GAPGH. […]
Expression of contractile VSMC markers in human cells. […] Calponin (Panel A), alpha smooth muscle actin (alpha SMA) (Panel B), heavy chain myosin (MHSCM) (Panel C), and SM22 alpha (Panel D) message levels detected by RT-PCR were low in hVSMC in basal conditions (open bars, Group A) and in the presence of high phosphorus media (black bars, Group B). […] The data in Panels A-D were normalized to the expression level in basal culture conditions and expressed as fold induction, mean±SEM, n=3. […]

[2] = tested on: LDLR−/− high fat fed mice; assay: Histology of proximal aorta (alizarin red): calcified atherosclerotic plaques; type: in vivo, mouse
Description: Tissue Preparation: Resected specimens were flash frozen in liquid nitrogen, then divided as follows: the heart, ascending aorta and aortic arch were separated from the descending aorta, and bisected sagittally through the aortic outflow tract. The descending aorta was bisected coronally, approximately halfway along its length. In order to visualize calcification in the tissue sections, Slices (5 μm thick) were cut and stained with von Kossa and Trap staining.
Additional mice were enrolled to the study for qualitative analysis of aortas to quantitate the effects of the treatments, because aortas of the experimental animals were destroyed by the technique of quantifying the aortic calcium content. Vascular calcification was largely aortic atherosclerotic plaque associated (FIG. 3), and punctate calcifications in the tunica media were observed. Panel A: Large lipid laden plaque (between arrows) in proximal aorta of a sham-operated high fat fed LDLR−/− mouse. Thick arrows identify focal calcifications in the base of the plaque. Panel B: A large calcified plaque (between arrows) in the proximal aorta of a CKD high fat fed LDLR−/− mouse. Panel C: A large lipid laden plaque (between arrows) in the proximal aorta of a BMP-7 treated CKD high fat fed LDLR−/− mouse. The stain is alizarin red. Magnification is 400× in A-C.

B1: BMP-7: bone morphogenetic protein-7 (osteogenic protein-1), mineralization-countering morphogen; provided by Johnson and Johnson (protein, listed as Homo sapiens)
chain: STGSKQRSQNRSKTPKNQEALRMANVAENSSSDQRQACKKHELYVSFRDLGWQDWIIAPEGYAAYYCEGECAFPLNSYMNATNHAIVQTLVHFINPETVPKPCCAPTQLNAISVLYFDDSSNVILKKYRNMVVRACGCH
**Q.** Which results are given for B1?
**A.** Calponin message level ([1]; high phosphorus media plus BMP-7 (FIG. 8A)): induced expression of each of the marker proteins; alpha smooth muscle actin (alpha SMA) message level ([1]; high phosphorus media plus BMP-7 (FIG. 8B)): induced expression of each of the marker proteins; heavy chain myosin (MHSCM) message level ([1]; high phosphorus media plus BMP-7 (FIG. 8C)): induced expression of each of the marker proteins; SM22 alpha message level ([1]; high phosphorus media plus BMP-7 (FIG. 8D)): induced expression of each of the marker proteins; size of the atherosclerotic lesions ([2]; proximal aorta (FIG. 3)): did not decrease the size of the atherosclerotic lesions; plaque associated calcium deposition ([2]; proximal aorta, alizarin red stain (FIG. 3)): diminished plaque associated calcium deposition

— patent US8741840B2, “BMP-7 for use in treating neointimal hyperplasia” (Washington University, priority 2008, dated 2014)
